From the supplement of paper PMC9170038

Legend:
MS2 coat protein [1] = assay: apparent KD of MS2 coat protein, switch OFF state (with FMN for OFF switches, without FMN for ON switches); designed switch direction (-1 OFF switch, 1 ON switch): -1; higher = weaker reporter binding; conditions: FMN input: 0 or 200 uM; Eterna round: R93 (includes R88 designs)
Outline: (§1)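 Binding of SNAP-549-labelled MS2 coat protein was measured on designed RNA switches transcribed on-chip from Illumina sequencing clusters. The protein rose in twofold steps from 0.7 or 1.5 nM to 3 µM, with 0.8–1.5 h per step early on and 10–20 min per step later, in 100 mM Tris-HCl pH 7.5, 80 mM KCl, 4 mM MgCl2, without or with constant ligand. Each design's apparent KD is the median of fits to its normalised cluster binding curves.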

MS2 coat protein [2] = assay: apparent KD of MS2 coat protein, switch ON state; designed switch direction (-1 OFF switch, 1 ON switch): -1; higher = weaker reporter binding; conditions: FMN input: 0 or 200 uM; Eterna round: R93 (includes R88 designs)
Outline: as §1

Sequence: AAAAGACAUGAGGAUCACCCAUGUAAGGAUAUGCAGAGAGCAAAACAAAAAAAAAAAAGCAGAAGGUACAUAAA [Design2]
- apparent KD of MS2 coat protein (MS2 coat protein [1]): 65.1 nM
- apparent KD of MS2 coat protein (MS2 coat protein [2]): 55.4 nM

Sequence: CUCAUGUCAGGAUAUGUAGCAUGAUACGAAAGUAUCAUGCUACAGAAGGGACAUGAGGAUCACCCAUGUCAAAA [Ex4: 943]
- apparent KD of MS2 coat protein (MS2 coat protein [1]): 17.5 nM
- apparent KD of MS2 coat protein (MS2 coat protein [2]): 22.1 nM

Sequence: AAGGUAGGAGGAUAUACAUAGAUACAGAUACAUGUAGACGUACAUGAGGAUCACCCAUGUAGAAGGCCUAUAUA [Mat - Same state - Mayanna Mod - D147]
- apparent KD of MS2 coat protein (MS2 coat protein [1]): 107 nM
- apparent KD of MS2 coat protein (MS2 coat protein [2]): 97.3 nM

Sequence: AAACGUACAGGAUAUACGAAAAGAUUACGAAAGUAAUCGGGACAUGAGGAUCACCCAUGUAGAAGGGUACGAAA [Mod2 of Meechl 64% 4]
- apparent KD of MS2 coat protein (MS2 coat protein [1]): 61.7 nM
- apparent KD of MS2 coat protein (MS2 coat protein [2]): 48 nM

Sequence: AAGAAGAGAGGAUAUACAAAAUAAAAGAAAAGAAAGAAAGAACAUGAGGAUCACCCAUGUAGAAGGCUCAAGAA [Hotepibre Qemau Siharnedjheritef]
- apparent KD of MS2 coat protein (MS2 coat protein [1]): 28.4 nM
- apparent KD of MS2 coat protein (MS2 coat protein [2]): 25.6 nM

Sequence: AAAAAGUCAGGAUAUCGUAGAAAAAUAUAAAUAAGAAAGUACGAGAAGGGACAUGAGGAUCACCCAUGUAAAAA [Ex 4 #1]
- apparent KD of MS2 coat protein (MS2 coat protein [1]): 36.8 nM
- apparent KD of MS2 coat protein (MS2 coat protein [2]): 50 nM

Sequence: AACUGACAUGAGGAUCACCCAUGUCAGGAUAUGCUUAAUAAAAAAAAAAAAAAAUGAUGCAGAAGGGAUAUGGG [Amethyst 56]
- apparent KD of MS2 coat protein (MS2 coat protein [1]): 18.9 nM
- apparent KD of MS2 coat protein (MS2 coat protein [2]): 23.7 nM

Sequence: AGGAUGUCAGGAUAUGCGUGAAGAAUAAAACAAAUAACAACGCAGAAGGGACAUGAGGAUCACCCAUGUUAAGA [May 46]
- apparent KD of MS2 coat protein (MS2 coat protein [1]): 68.3 nM
- apparent KD of MS2 coat protein (MS2 coat protein [2]): 45.2 nM

Sequence: GAAAACCUAGGAUAUACAUGAGGAUCACCCAUGUCAGUAGACUGGGAAAGGUCUCUCAGUAGAAGGAGGACCCG [Zaered]
- apparent KD of MS2 coat protein (MS2 coat protein [1]): 437 nM
- apparent KD of MS2 coat protein (MS2 coat protein [2]): 509 nM

Sequence: AGCAAACAUGAGGAUCACCCAUGUGAGGAUAUGAACGAAAAUAAAUAAAAAUAAAAGUUCAGAAGGCACGAGCA [66%, Wbt, 26]
- apparent KD of MS2 coat protein (MS2 coat protein [1]): 35.6 nM
- apparent KD of MS2 coat protein (MS2 coat protein [2]): 30.4 nM

Sequence: AAGAAGGUAGGAUAUACUAGGGCAACUAAUGCAAAGAUAAAACAUGAGGAUCACCCAUGUAGAAGGGCCAGAAA [JR_Exc002_Sub401]
- apparent KD of MS2 coat protein (MS2 coat protein [1]): 35.4 nM
- apparent KD of MS2 coat protein (MS2 coat protein [2]): 33.8 nM

Sequence: AAGGGACAUGAGGAUCACCCAUGUGAGGAUAUGACGUAAAUAAAGAAAGAAGAAAUCGUCAGAAGGCACACCAA [55%, Disencluded 2, 3]
- apparent KD of MS2 coat protein (MS2 coat protein [1]): 117 nM
- apparent KD of MS2 coat protein (MS2 coat protein [2]): 67 nM

Sequence: CUCUUGUCAGGAUAUCAAAGAAAAGAAGAGAAAGAAAAGAAUGAGAAGGGACAUGAGGAUCACCCAUGUAAGAA [EteRNA is fun!]
- apparent KD of MS2 coat protein (MS2 coat protein [1]): 51.7 nM
- apparent KD of MS2 coat protein (MS2 coat protein [2]): 48.1 nM

Sequence: AACUGUACAGGAUAUACAUGAGGAUCACCCAUGUGAGAAUUAAGUGGAAAACCACAAAGUAGAAGGGUACAGGA [Mat - Exclusion 3 - JL mod - D18]
- apparent KD of MS2 coat protein (MS2 coat protein [1]): 136 nM
- apparent KD of MS2 coat protein (MS2 coat protein [2]): 27.6 nM

Sequence: CUCAUGUUAGGAUAUAAAUGAAAUGAAGUGAAAGAAAAGAAUUAGAAGGAACAUGAGGAUCACCCAUGUUAGAA [EteRNA is fun!]
- apparent KD of MS2 coat protein (MS2 coat protein [1]): 37.6 nM
- apparent KD of MS2 coat protein (MS2 coat protein [2]): 47.8 nM

Sequence: AAAAAACAUGAGGAUCACCCAUGUGAGGAUAUGUAUAUCCCUAAAAAAGUGUGGGACUACAGAAGGCACUUGGA [Atanri]
- apparent KD of MS2 coat protein (MS2 coat protein [1]): 122 nM
- apparent KD of MS2 coat protein (MS2 coat protein [2]): 43.3 nM

Sequence: AAAAAGUGAGGAUAUGUCAAAGGUCACGAAAGUGACAAAGGACAGAAGGCACAUGAGGAUCACCCAUGUGGGAA [Fiskers Exclusion 4D1 65% - Early + late G segment 1]
- apparent KD of MS2 coat protein (MS2 coat protein [1]): 77.6 nM
- apparent KD of MS2 coat protein (MS2 coat protein [2]): 67.4 nM

Sequence: AAAAGACAUGAGGAUCACCCAUGUGAGGAUAUCGGAAAAGGAAAAAAAAAAAAGAAGACGAGAAGGCACACCAA
- apparent KD of MS2 coat protein (MS2 coat protein [1]): 33.8 nM
- apparent KD of MS2 coat protein (MS2 coat protein [2]): 42.5 nM

Sequence: AGGAUGUCAGGAUAUGUGUAAAGAAUAAAACAAAUAACAACACAGAAGGGACAUGAGGAUCACCCAUGUUACGA [May 43]
- apparent KD of MS2 coat protein (MS2 coat protein [1]): 37.3 nM
- apparent KD of MS2 coat protein (MS2 coat protein [2]): 31.1 nM

Sequence: AAACCACAUGAGGAUCACCCAUGUCAGGAUAUGCAAACAACAAACAACAAACAACAAAGCAGAAGGGACAACAA [63%, Olong, 2]
- apparent KD of MS2 coat protein (MS2 coat protein [1]): 18 nM
- apparent KD of MS2 coat protein (MS2 coat protein [2]): 13.8 nM

Sequence: AAUGUACGAGGAUAUACAUAGAUACAGAUACAUGUAGACGUACAUGAGGAUCACCCAUGUAGAAGGCGUAUAUA [Mat - Same state - Mayanna Mod - D113]
- apparent KD of MS2 coat protein (MS2 coat protein [1]): 172 nM
- apparent KD of MS2 coat protein (MS2 coat protein [2]): 82.8 nM
